Experiments:
[1] = biological target: T1, EGFR (form used in the assay not stated) (human, UniProt P00533 25-645, limits assumed); assay: ELISA, NEM conjugate, 100 nM
[2] = biological target: T1, EGFR (form used in the assay not stated); assay: ELISA, NEM conjugate, 500 nM
[3] = biological target: T1, EGFR (form used in the assay not stated); assay: ELISA, NEM conjugate, 10 nM

| Binder | binding relative to P54AR4-83v2 parent [1] | binding relative to P54AR4-83v2 parent [2] | binding relative to P54AR4-83v2 parent [3] |
| --- | --- | --- | --- |
| P54AR4-83v2 P24C, NEM conjugate (designed binder, not shown: small tags and cut ends, N-ethyl maleimide (NEM) on Cys 24) LPAPKNLVVSEVTEDSARLSWDDCWAFYESFLIQYQESEKVGEAIVLTVPGSERSYDLTGLKPGTEYTVSIYGVHNVYKDTNMRGLPLSAIFTT | 0.85 ratio | 0.83 ratio | 0.45 ratio |
| P54AR4-83v2 Q34C, NEM conjugate (designed binder, not shown: small tags and cut ends, N-ethyl maleimide (NEM) on Cys 34) LPAPKNLVVSEVTEDSARLSWDDPWAFYESFLICYQESEKVGEAIVLTVPGSERSYDLTGLKPGTEYTVSIYGVHNVYKDTNMRGLPLSAIFTT | 1.03 ratio | 0.94 ratio | 0.89 ratio |
| P54AR4-83v2 S16C, NEM conjugate (designed binder, not shown: small tags and cut ends, N-ethyl maleimide (NEM) on Cys 16) LPAPKNLVVSEVTEDCARLSWDDPWAFYESFLIQYQESEKVGEAIVLTVPGSERSYDLTGLKPGTEYTVSIYGVHNVYKDTNMRGLPLSAIFTT | 1.05 ratio | 0.63 ratio | 0.88 ratio |
| P54AR4-83v2 T48C, NEM conjugate (designed binder, not shown: small tags and cut ends, N-ethyl maleimide (NEM) on Cys 48) LPAPKNLVVSEVTEDSARLSWDDPWAFYESFLIQYQESEKVGEAIVLCVPGSERSYDLTGLKPGTEYTVSIYGVHNVYKDTNMRGLPLSAIFTT | 1 ratio | 0.93 ratio | 0.88 ratio |
| P54AR4-83v2 V41C, NEM conjugate (designed binder, not shown: small tags and cut ends, N-ethyl maleimide (NEM) on Cys 41) LPAPKNLVVSEVTEDSARLSWDDPWAFYESFLIQYQESEKCGEAIVLTVPGSERSYDLTGLKPGTEYTVSIYGVHNVYKDTNMRGLPLSAIFTT | 0.99 ratio | 0.95 ratio | 0.92 ratio |
| P54AR4-83v2 S70C, NEM conjugate (designed binder, not shown: small tags and cut ends, N-ethyl maleimide (NEM) on Cys 70, also called 570C) LPAPKNLVVSEVTEDSARLSWDDPWAFYESFLIQYQESEKVGEAIVLTVPGSERSYDLTGLKPGTEYTVCIYGVHNVYKDTNMRGLPLSAIFTT | 1.01 ratio | 0.93 ratio | 0.86 ratio |
| P54AR4-83v2 T13C, NEM conjugate (designed binder, not shown: small tags and cut ends, N-ethyl maleimide (NEM) on Cys 13) LPAPKNLVVSEVCEDSARLSWDDPWAFYESFLIQYQESEKVGEAIVLTVPGSERSYDLTGLKPGTEYTVSIYGVHNVYKDTNMRGLPLSAIFTT | 1.04 ratio | 0.9 ratio | 0.87 ratio |
| P54AR4-83v2 V46C, NEM conjugate (designed binder, not shown: small tags and cut ends, N-ethyl maleimide (NEM) on Cys 46) LPAPKNLVVSEVTEDSARLSWDDPWAFYESFLIQYQESEKVGEAICLTVPGSERSYDLTGLKPGTEYTVSIYGVHNVYKDTNMRGLPLSAIFTT | 1.01 ratio | 0.9 ratio | 0.61 ratio |
| P54AR4-83v2 S55C, NEM conjugate (designed binder, not shown: small tags and cut ends, N-ethyl maleimide (NEM) on Cys 55) LPAPKNLVVSEVTEDSARLSWDDPWAFYESFLIQYQESEKVGEAIVLTVPGSERCYDLTGLKPGTEYTVSIYGVHNVYKDTNMRGLPLSAIFTT | 0 ratio | 0.11 ratio | 0 ratio |
| P54AR4-83v2 V8C, NEM conjugate (designed binder, not shown: small tags and cut ends, N-ethyl maleimide (NEM) on Cys 8) LPAPKNLCVSEVTEDSARLSWDDPWAFYESFLIQYQESEKVGEAIVLTVPGSERSYDLTGLKPGTEYTVSIYGVHNVYKDTNMRGLPLSAIFTT | 1.03 ratio | 0.9 ratio | 0.96 ratio |
| P54AR4-83v2 S30C, NEM conjugate (designed binder, not shown: small tags and cut ends, N-ethyl maleimide (NEM) on Cys 30, also called 530C) LPAPKNLVVSEVTEDSARLSWDDPWAFYECFLIQYQESEKVGEAIVLTVPGSERSYDLTGLKPGTEYTVSIYGVHNVYKDTNMRGLPLSAIFTT | 1.02 ratio | 0.9 ratio | 0.9 ratio |
| P54AR4-83v2 R18C, NEM conjugate (designed binder, not shown: small tags and cut ends, N-ethyl maleimide (NEM) on Cys 18) LPAPKNLVVSEVTEDSACLSWDDPWAFYESFLIQYQESEKVGEAIVLTVPGSERSYDLTGLKPGTEYTVSIYGVHNVYKDTNMRGLPLSAIFTT | 1.05 ratio | 0.94 ratio | 0.86 ratio |
| P54AR4-83v2 T59C, NEM conjugate (designed binder, not shown: small tags and cut ends, N-ethyl maleimide (NEM) on Cys 59) LPAPKNLVVSEVTEDSARLSWDDPWAFYESFLIQYQESEKVGEAIVLTVPGSERSYDLCGLKPGTEYTVSIYGVHNVYKDTNMRGLPLSAIFTT | 1.04 ratio | 0.93 ratio | 0.83 ratio |
| P54AR4-83v2 S89C, NEM conjugate (designed binder, not shown: small tags and cut ends, N-ethyl maleimide (NEM) on Cys 89) LPAPKNLVVSEVTEDSARLSWDDPWAFYESFLIQYQESEKVGEAIVLTVPGSERSYDLTGLKPGTEYTVSIYGVHNVYKDTNMRGLPLCAIFTT | 1.02 ratio | 1.04 ratio | 0.97 ratio |
| P54AR4-83v2 P63C, NEM conjugate (designed binder, not shown: small tags and cut ends, N-ethyl maleimide (NEM) on Cys 63) LPAPKNLVVSEVTEDSARLSWDDPWAFYESFLIQYQESEKVGEAIVLTVPGSERSYDLTGLKCGTEYTVSIYGVHNVYKDTNMRGLPLSAIFTT | 1.02 ratio | 0.92 ratio | 0.95 ratio |
| P54AR4-83v2 S20C, NEM conjugate (designed binder, not shown: small tags and cut ends, N-ethyl maleimide (NEM) on Cys 20, also called 520C) LPAPKNLVVSEVTEDSARLCWDDPWAFYESFLIQYQESEKVGEAIVLTVPGSERSYDLTGLKPGTEYTVSIYGVHNVYKDTNMRGLPLSAIFTT | 1.05 ratio | 0.91 ratio | 0.81 ratio |
| P54AR4-83v2 S38C, NEM conjugate (designed binder, not shown: small tags and cut ends, N-ethyl maleimide (NEM) on Cys 38) LPAPKNLVVSEVTEDSARLSWDDPWAFYESFLIQYQECEKVGEAIVLTVPGSERSYDLTGLKPGTEYTVSIYGVHNVYKDTNMRGLPLSAIFTT | 0.93 ratio | 0.82 ratio | 0.8 ratio |
| P54AR4-83v2 S10C, NEM conjugate (designed binder, not shown: small tags and cut ends, N-ethyl maleimide (NEM) on Cys 10) LPAPKNLVVCEVTEDSARLSWDDPWAFYESFLIQYQESEKVGEAIVLTVPGSERSYDLTGLKPGTEYTVSIYGVHNVYKDTNMRGLPLSAIFTT | 1.07 ratio | 0.96 ratio | 0.83 ratio |
| P54AR4-83v2 T68C, NEM conjugate (designed binder, not shown: small tags and cut ends, N-ethyl maleimide (NEM) on Cys 68, not used) LPAPKNLVVSEVTEDSARLSWDDPWAFYESFLIQYQESEKVGEAIVLTVPGSERSYDLTGLKPGTEYCVSIYGVHNVYKDTNMRGLPLSAIFTT | 1.04 ratio | 0.95 ratio | 0.83 ratio |
| P54AR4-83v2 P87C, NEM conjugate (designed binder, not shown: small tags and cut ends, N-ethyl maleimide (NEM) on Cys 87) LPAPKNLVVSEVTEDSARLSWDDPWAFYESFLIQYQESEKVGEAIVLTVPGSERSYDLTGLKPGTEYTVSIYGVHNVYKDTNMRGLCLSAIFTT | 0.93 ratio | 0.91 ratio | 0.73 ratio |
| P54AR4-83v2 V9C, NEM conjugate (designed binder, not shown: small tags and cut ends, N-ethyl maleimide (NEM) on Cys 9) LPAPKNLVCSEVTEDSARLSWDDPWAFYESFLIQYQESEKVGEAIVLTVPGSERSYDLTGLKPGTEYTVSIYGVHNVYKDTNMRGLPLSAIFTT | 1.03 ratio | 0.93 ratio | 0.94 ratio |
| P54AR4-83v2 R54C, NEM conjugate (designed binder, not shown: small tags and cut ends, N-ethyl maleimide (NEM) on Cys 54) LPAPKNLVVSEVTEDSARLSWDDPWAFYESFLIQYQESEKVGEAIVLTVPGSECSYDLTGLKPGTEYTVSIYGVHNVYKDTNMRGLPLSAIFTT | 1.01 ratio | 0.93 ratio | 0.89 ratio |
| P54AR4-83v2 P50C, NEM conjugate (designed binder, not shown: small tags and cut ends, N-ethyl maleimide (NEM) on Cys 50) LPAPKNLVVSEVTEDSARLSWDDPWAFYESFLIQYQESEKVGEAIVLTVCGSERSYDLTGLKPGTEYTVSIYGVHNVYKDTNMRGLPLSAIFTT | 1.05 ratio | 0.97 ratio | 0.91 ratio |
| P54AR4-83v2 V12C, NEM conjugate (designed binder, not shown: small tags and cut ends, N-ethyl maleimide (NEM) on Cys 12) LPAPKNLVVSECTEDSARLSWDDPWAFYESFLIQYQESEKVGEAIVLTVPGSERSYDLTGLKPGTEYTVSIYGVHNVYKDTNMRGLPLSAIFTT | 1.06 ratio | 0.93 ratio | 0.87 ratio |
| P54AR4-83v2 T81C, NEM conjugate (designed binder, not shown: small tags and cut ends, N-ethyl maleimide (NEM) on Cys 81) LPAPKNLVVSEVTEDSARLSWDDPWAFYESFLIQYQESEKVGEAIVLTVPGSERSYDLTGLKPGTEYTVSIYGVHNVYKDCNMRGLPLSAIFTT | 0.9 ratio | 1.02 ratio | 0.5 ratio |
| P54AR4-83v2 S52C, NEM conjugate (designed binder, not shown: small tags and cut ends, N-ethyl maleimide (NEM) on Cys 52) LPAPKNLVVSEVTEDSARLSWDDPWAFYESFLIQYQESEKVGEAIVLTVPGCERSYDLTGLKPGTEYTVSIYGVHNVYKDTNMRGLPLSAIFTT | 1.03 ratio | 0.93 ratio | 0.78 ratio |
| P54AR4-83v2 T93C, NEM conjugate (designed binder, not shown: small tags and cut ends, N-ethyl maleimide (NEM) on Cys 93) LPAPKNLVVSEVTEDSARLSWDDPWAFYESFLIQYQESEKVGEAIVLTVPGSERSYDLTGLKPGTEYTVSIYGVHNVYKDTNMRGLPLSAIFCT | 1.05 ratio | 1.04 ratio | 0.96 ratio |
| P54AR4-83v2 R84C, NEM conjugate (designed binder, not shown: small tags and cut ends, N-ethyl maleimide (NEM) on Cys 84) LPAPKNLVVSEVTEDSARLSWDDPWAFYESFLIQYQESEKVGEAIVLTVPGSERSYDLTGLKPGTEYTVSIYGVHNVYKDTNMCGLPLSAIFTT | 1.04 ratio | 0.98 ratio | 0.91 ratio |

From patent publication US20210301025A1 (published 2021)
